These results are taken from US20250136699A1 (JIANGSU BIOJETAY BIOTECHNOLOGY, published 2025).

Where a chain is given by its changes, count along the chain named.

B1: ZLP44 (antibody, V domains shown)
VH: EVQLQQSGPELVKPGASVKVSCKASGYIFTSYNMYWMKQSHGKSLEWIGYIDPYNGGTRYNQKFKGKATLTVDKSSSTAYMHLNSLTSEDSAVYYCAVDGYNGAMDYWGQGTSVTVSS
VL: QIVLTQSPASLAVSLGQRATISCRASESVDSYGNSFMHWYQQKPGQPPKLLIYRASNLESGIPARFSGSGSRTDFTLTINPVEADDVATYYCQQSNEDPYTFGGGTKLEIK
notes: Full-length chimeric antibody; human kappa or lambda light constant domain
B2: ZLP64 (antibody, V domains shown)
VH: B1 VH with E1Q, V2I, Q5L, R59N
VL: B1 VL with Q1D, A12T, S31R, I62V, T89S, Y100L, G104A, I110L
notes: as for B1
B3: ZLP17 (antibody, V domains shown)
VH: QIQLLQSGAELARPGASVKMSCKASGYTFTSYTMHWVKQRPGQGLEWIGYINPSSGYTNYNQKFKDKATLTADKSSSTAYMQLSSLTSEGSAVYYCARSGLRRVLDYWGQGTSVTVSS
VL: ENVLTQSPAILSASPGEKVTMTCSASSSVSYMYWYQQKPGSSPRLLIYDTSNLASGVPVRFSGSGSGTSYSLTISRMEAEDAATYYCQQWSSYPRTFGGGTKLEIK
notes: Full-length chimeric antibody with human IgG1 or IgG4 heavy constant and human kappa or lambda light constant domain
B4: ZLP198 (antibody, V domains shown)
VH: EVKLMESGPDLVKPSQSLSLTCTVTGYSITSGYSWHWIRHFPGKKLEWMGYIHNSGSTNYNPSLKSRISISRETSKNQFFLQLNSVTTEDTATYYCAREGYGGYWYFDVWGAGTSVTVSS
VL: B3 VL with E1D, N2I, L11M, R44K, L45P, L46W, D49G, W90R, R95Y
notes: as for B3
B5: ZLP22 (antibody, V domains shown)
VH: EVKLVESGAELARPGASVKMSCKASGYTFTSYAMHWVKQRPGQGLEWIGYINPSSGYTNYNQKFKDKATLTADKSSSTAYMQLSSLTSEDSAVYYCARKGLRYAVDYWGQGTSVTVSS
VL: DIVMTQSPSSLSVSAGEKVTMSCKSSQSLLNSGNQKNYLAWYQQKPGQPPKLLIYGASTRESGVPDRFTGSGSGTDYTLTISSVQAEDLALYYCQQHYSTPYTFGGGTKLEIK
notes: as for B1
B6: ZLP193 (antibody, V domains shown)
VH: EVQLQESGPDLVKPSQSLSLTCTVTGYSFTSGYSWHWIRQFPGNRLEWMGYIHDSGGTNYNPSLKSRISITRDTSKNQFFLQLNSVTTEDTATYYCAREENYRYFDVWGAGTTVTVSS
VL: DIQMMQSPAIMSASPGEKVTITCSASSSVSYMHWFQQKPGTSPKLWIYSTSNLASGVPARFSGSGSGTSYSLTISRMEAEDAATYYCQQRSSYPPTFGDGTRLEIK
notes: Full-length chimeric antibody: mouse variable domains with human IgG1 or IgG4 heavy constant domain and human kappa or lambda light constant domain; also called chimeric anti-FcRn antibody ZLP193
B7: ZLP42 (antibody, V domains shown)
VH: QVQLQQPGAELVKPGASVKLSCTASGFNIKDTYMYWVKQRPEQGLEWIGRIDPANGITKFDPKFQDKATVTADTFSNIAYLHLSSLTSEDTAVYYCTTTAVMATEAMDRWGQGTSVTVSS
VL: B1 VL
notes: Full-length chimeric antibody
B8: ZLP57 (antibody, V domains shown)
VH: QVQLKESGPDLVKPSQSLSLTCTVTGYSITSGYSWHWIRQFPGNKLEWMTYIHSSGSTNYNPSLKSRISITRDTSKNQFFLQLKSVTTEDTATYYCAREVYGNYYWYFDVWGAGTTVTVSS
VL: DIVMTQSPAIMSASLGEEITLTCSASSSVSYMHWYQQKSGTSPKLLIYSTSNLASGVPARFSGSGSGTSYSLTISRMEAEDAATYYCQQRSSYPYTFGGGTKLEIK
notes: as for B3

In one experiment the target is T1, Cynomolgus monkey FcRn-alpha (cynomolgus monkey, UniProt Q8SPV9 24-297, limits assumed).
T1 construct: The printed entry looks like the full-length precursor (signal peptide, transmembrane and cytoplasmic parts); also called cynoFcRn; not shown: His tag and Avi tag
T1 sequence (Q8SPV9 24-297 limits assumed): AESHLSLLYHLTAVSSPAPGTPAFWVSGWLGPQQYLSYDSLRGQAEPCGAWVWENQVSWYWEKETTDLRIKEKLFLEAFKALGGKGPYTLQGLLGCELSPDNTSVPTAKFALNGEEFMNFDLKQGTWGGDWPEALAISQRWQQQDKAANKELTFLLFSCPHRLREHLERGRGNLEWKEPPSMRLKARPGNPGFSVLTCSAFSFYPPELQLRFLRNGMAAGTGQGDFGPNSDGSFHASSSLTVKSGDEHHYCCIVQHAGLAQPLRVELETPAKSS
Briefly: ELISA: cynoFcRn coated, antibody titrated, goat anti-human IgG Fab-HRP, OD450. For orientation: ELISA stands for enzyme-linked immunosorbent assay.
As for B1, the EC50 (read off the curve) (as a rule, the concentration at which the effect is half-maximal) is roughly 0.1 nM.

Take B2: the concentration giving a half-maximal response (EC50 (read off the curve)) was roughly 0.08 nM.

For the molecule B3, the half-maximal effective concentration (EC50 (read off the curve)) is roughly 7 nM.

Take B4: the 50% effective concentration (EC50 (read off the curve)) is roughly 6 nM.

For the molecule B5, the “EC50 (read off the curve)” value was roughly 0.8 nM.

Consider B6, for which the “EC50 (read off the curve)” value was roughly 0.3 nM.

In the next experiment the target is T2, human B2M (human, UniProt P61769 21-119, limits assumed).
T2 construct: also called beta-2-microglobulin; not shown: His tag and Avi tag
T2 sequence (P61769 21-119 limits assumed): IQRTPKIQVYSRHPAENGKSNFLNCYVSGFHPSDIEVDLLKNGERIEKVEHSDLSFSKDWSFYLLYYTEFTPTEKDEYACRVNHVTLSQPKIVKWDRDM
The experiment in a line: ELISA: human B2M coated, antibody titrated, OD450.
As for B1, the binding result is “no binding (tested: about 700 nM (Log[Ab] about 2.8))”.

As to B7, the binding result was “no binding (tested: about 700 nM (Log[Ab] about 2.8))”.

As to B2, the binding result is “no binding (tested: about 700 nM (Log[Ab] about 2.8))”.

Consider B3, for which the binding result was “no binding (tested: about 700 nM (Log[Ab] about 2.8))”.

B4: the binding result was “no binding (tested: about 700 nM (Log[Ab] about 2.8))”.

On to B5, for which the binding result was “no binding (tested: about 700 nM (Log[Ab] about 2.8))”.

As to B8, the binding result is “no binding (tested: about 700 nM (Log[Ab] about 2.8))”.

Consider B6, for which the binding result was “no binding (tested: about 700 nM (Log[Ab] about 2.8))”.

For a further experiment, the target named is T3, musculus FcRn-alpha (mouse, UniProt Q61559 22-297, limits assumed).
T3 construct: Alpha chain alone; also called mFcRn; mouse FcRn; not shown: His tag and Avi tag
T3 sequence: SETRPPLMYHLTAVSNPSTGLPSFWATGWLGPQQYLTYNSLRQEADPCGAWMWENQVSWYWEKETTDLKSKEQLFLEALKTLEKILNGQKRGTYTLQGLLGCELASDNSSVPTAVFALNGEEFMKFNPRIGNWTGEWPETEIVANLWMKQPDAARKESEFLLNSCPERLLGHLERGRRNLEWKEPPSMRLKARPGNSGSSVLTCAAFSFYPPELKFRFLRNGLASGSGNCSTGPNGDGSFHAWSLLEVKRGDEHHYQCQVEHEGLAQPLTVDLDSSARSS
Briefly: ELISA: mFcRn coated, antibody titrated, goat anti-human IgG Fab-HRP, OD450.
In the case of “Human IgG (Jackson ImmunoResearch, cat #009-000-003) (antibody)”, the 50% effective concentration (EC50 (read off the curve)) turned out to be 30 nM.

As for B3, the “EC50 (read off the curve)” value was roughly 30 nM.

Turning to B4, the “EC50 (read off the curve)” value is roughly 10 nM.

In the case of B5, the 50% effective concentration (EC50 (read off the curve)) was roughly 20 nM.

In the case of B6, the “EC50 (read off the curve)” value is roughly 9 nM.

In the next experiment the target is T4, human FCGRT (human, UniProt P55899 24-297, biotinylated (Avi tag) in the blocking assays).
T4 construct: Alpha chain alone, expressed in Expi293 cells with His and Avi tags; also called FCGRT of human FcRn protein; biotinylated human FCGRT; not shown: His tag and Avi tag
T4 sequence (P55899 24-297 limits assumed): as the sequence (Q8SPV9 24-297 limits assumed) above, with D39N, Q44E, S99G, G189S, N190S, M217L, T269S counted along it
Briefly: ELISA: human FCGRT coated, antibody titrated, goat anti-human IgG Fab-HRP, OD450.
Take B3: the “EC50 (read off the curve)” value is roughly 20 nM.

For the molecule B4, the concentration for a half-maximal effect (EC50 (read off the curve)) was roughly 20 nM.

For the molecule B5, the “EC50 (read off the curve)” value is roughly 7 nM.

As to B6, the half-maximal effective concentration (EC50 (read off the curve)) is roughly 1 nM.

The target of another experiment is T4, human FCGRT. Briefly: competition ELISA: human IgG coated, biotinylated human FCGRT plus antibody, SA-HRP.
Experimental: (§1) After removing the coating solution, the wells were blocked with a blocking buffer containing 1% BSA at room temperature for 1 hour. Plates were then washed with wash buffer. […] After incubation, 100 μL of SA-HRP (1:20,000) was added to each well and incubated for 1 hour at 37° C. The wells were washed before adding 100 μL/well of TMB and incubated for 5-10 minutes at 37° C. 2M H₂SO₄ was used to stop the reaction. […] The ELISA results (OD450) were analyzed, and the binding curves were generated by PRISM.
B1: the IC50 – broadly, the midpoint of a concentration-inhibition curve – amounted to 12.3 nM.

For the molecule B7, the IC50 was 10.9 nM.

B2: the concentration for half-maximal inhibition (IC50) was determined as 12.5 nM.

Turning to B8, the 50% inhibitory concentration (IC50) is 8.88 nM.

Consider B6, for which the half-inhibitory concentration (IC50) was 8.7 nM.

The target of a further experiment is T4, human FCGRT. The experiment in a line: ELISA: human FCGRT coated, antibody titrated, goat anti-human IgG Fab-HRP, OD450. This is another data set of the same source.
Experimental: Measurement of the binding specificity of anti-FcRn antibodies to FCGRT and B2M by EILSA: Briefly, human FCGRT or B2M was coated on a 96-well plate at 4° C. overnight, after removing the coating solution, a blocking buffer containing 1% BSA was added into the plates followed by incubation at room temperature for 1 hour to block unspecific binding. Plates were then washed with wash buffer, and serial dilutions of anti-FcRn antibodies were added to the wells and incubated at room temperature for 1 hour. […] The wells were washed before adding 100 μL/well of TMB and incubated for 5-10 minutes at 37° C. 2M H₂SO₄ was used to stop the reaction. […] The ELISA results (OD450) were analyzed, and the binding curves were generated by Graphpad PRISM.
B1: the “EC50 (read off the curve)” value was roughly 0.1 nM.

As for B7, the “EC50 (read off the curve)” value was roughly 0.2 nM.

For the molecule B2, the “EC50 (read off the curve)” value is roughly 0.3 nM.

The target of a further experiment is human FcRn (human FCGRT and B2M) on stably transfected MDCK cells (human, UniProt P55899 24-365; P61769 21-119). Briefly: cell-based or functional assay.
Sequence of human FcRn (human FCGRT and B2M) on stably transfected MDCK cells (P55899 24-365, chain 1 of 2): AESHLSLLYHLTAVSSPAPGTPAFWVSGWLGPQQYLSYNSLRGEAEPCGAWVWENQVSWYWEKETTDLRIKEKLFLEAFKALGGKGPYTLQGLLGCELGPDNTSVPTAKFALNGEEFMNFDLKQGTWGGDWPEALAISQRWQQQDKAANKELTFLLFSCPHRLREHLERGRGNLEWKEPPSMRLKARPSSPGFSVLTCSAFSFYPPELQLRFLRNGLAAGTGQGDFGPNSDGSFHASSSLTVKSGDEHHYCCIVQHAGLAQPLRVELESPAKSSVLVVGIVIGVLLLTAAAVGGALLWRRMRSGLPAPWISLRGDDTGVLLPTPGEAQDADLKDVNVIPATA
Sequence of human FcRn (human FCGRT and B2M) on stably transfected MDCK cells (P61769 21-119, chain 2 of 2): as the sequence (P61769 21-119 limits assumed) above
In the case of B1, the “IgG Recycle IC50” value was found to be 2.5 nM.

As for B2, the “IgG Recycle IC50” value was found to be 10.7 nM.

On to B3, for which the “IgG Recycle IC50” value came to 3.24 nM.

Consider B5, for which the “IgG Recycle IC50” value worked out at 5.01 nM.

With B6, the “IgG Recycle IC50” value is 10.1 nM.

A further experiment deals with T4, human FCGRT. The experiment in a line: blocking ELISA: human IgG coated, biotinylated human FCGRT plus titrated antibody, SA-HRP, OD450; blocked ligand: human IgG.
Experimental: as §1
For B3, the “IC50 (read off the curve)” value was roughly 20 nM.

As to B5, the “IC50 (read off the curve)” value is roughly 30 nM.

A further experiment deals with T5, Human recombinant FCGRT & B2M Heterodimer Protein (hFcRn) (human, UniProt P55899 24-297; P61769 21-119).
T5 construct: Bought protein; also called human FcRn
T5 sequence (P55899 24-297 limits assumed, chain 1 of 2): as the sequence (Q8SPV9 24-297 limits assumed) above, with D39N, Q44E, S99G, G189S, N190S, M217L, T269S counted along it
T5 sequence (P61769 21-119 limits assumed, chain 2 of 2): as the sequence (P61769 21-119 limits assumed) above
Briefly: ELISA, hFcRn coated at 1 ug/mL, IgG4 antibody titrated, anti-human IgG Fab-HRP.
Experimental: hFcRn binding of purified full-length chimeric antibodies: The hFcRn antigen binding ELISA was performed on the purified full-length chimeric antibodies (reformatted as IgG4). Briefly, plates were coated overnight at 4° C. with 1 μg/mL of hFcRn (cat #CT009-H08H) in PBS. After removing the coating solution, the wells were blocked by adding blocking buffer and incubated at room temperature for 1 hour. Plates were then washed 6 times with wash buffer. Serial dilutions of purified antibodies in PBS were added to individual wells followed by incubation at room temperature for 1 hour. Plates were washed 6 times with wash buffer. […] Plates were incubated at 37° C. for 1 hour, washed 6 times with wash buffer, and developed for 5-10 minutes with 50 L/well of TMB substrate, then quenched with 2M H₂SO₄. […] The ELISA results (OD450) were analyzed, and the binding curves were generated by Graphpad PRISM.
For B1, the EC50 – broadly, the concentration giving half of the maximal effect – is 0.673 nM.

B7: the EC50 was 0.981 nM.

Turning to B2, the concentration for a half-maximal effect (EC50) came to 0.212 nM.

Consider B5, for which the EC50 turned out to be 2.39 nM.

As to B6, the EC50 amounted to 0.439 nM.

Another experiment has as its target T6, Rattus norvegicus FcRn-alpha (rat, UniProt P13599 23-298).
T6 construct: Alpha chain alone; also called rFcRn; rat FcRn; not shown: His tag and Avi tag
T6 sequence: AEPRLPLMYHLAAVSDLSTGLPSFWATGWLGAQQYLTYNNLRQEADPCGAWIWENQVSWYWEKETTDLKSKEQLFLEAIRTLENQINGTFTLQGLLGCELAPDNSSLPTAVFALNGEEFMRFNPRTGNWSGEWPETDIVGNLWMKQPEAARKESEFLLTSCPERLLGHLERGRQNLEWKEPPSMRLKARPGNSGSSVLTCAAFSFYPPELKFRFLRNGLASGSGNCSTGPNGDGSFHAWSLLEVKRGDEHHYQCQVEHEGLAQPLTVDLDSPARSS
The experiment in a line: ELISA: rFcRn coated, antibody titrated, goat anti-human IgG Fab-HRP, OD450.
Regarding B1, the binding result is “no binding (tested: about 700 nM (Log[Ab] about 2.8))”.

In the case of B7, the binding result is “no binding (tested: about 700 nM (Log[Ab] about 2.8))”.

B2: the binding result was “no binding (tested: about 700 nM (Log[Ab] about 2.8))”.

Consider B5, for which the binding result is “no binding (tested: about 700 nM (Log[Ab] about 2.8))”.

In the case of B6, the binding result was “no binding (tested: about 700 nM (Log[Ab] about 2.8))”.
